Columns and labels:
[1] = target: atypical MC receptor of Cos-7 cells; assay: estimated from the shift of the α-MSH cAMP curve in Cos-7 cells (functional)
[2] = target: MC receptor endogenous to Xenopus laevis melanophores (Xenopus laevis); assay: Schild plot; antagonism of α-MSH pigment dispersion in Xenopus melanophores (functional)
[3] = target: human MCR-4 receptor (human) (UniProt P32245); assay: cell-based or functional assay
[4] = target: human MCR-1 receptor (human) (UniProt Q01726); assay: cell-based or functional assay
Chain of human MCR-1 receptor (human) (Q01726 whole entry): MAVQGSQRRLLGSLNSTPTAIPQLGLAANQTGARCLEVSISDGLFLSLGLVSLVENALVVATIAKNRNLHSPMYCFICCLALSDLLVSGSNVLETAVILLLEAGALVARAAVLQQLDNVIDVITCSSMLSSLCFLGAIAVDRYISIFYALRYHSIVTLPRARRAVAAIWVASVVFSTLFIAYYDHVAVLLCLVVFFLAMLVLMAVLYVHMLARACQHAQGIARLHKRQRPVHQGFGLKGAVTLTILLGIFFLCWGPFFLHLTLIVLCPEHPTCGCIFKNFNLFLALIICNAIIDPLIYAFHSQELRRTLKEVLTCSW

[5] = target: MC receptor endogenous to Xenopus laevis melanophores (Xenopus laevis); assay: cell-based or functional assay
[6] = target: atypical MC receptor of Cos-7 cells; assay: cell-based or functional assay
[7] = target: human MCR-3 receptor (human) (UniProt P41968); assay: cell-based or functional assay
Chain of human MCR-3 receptor (human) (P41968 whole entry): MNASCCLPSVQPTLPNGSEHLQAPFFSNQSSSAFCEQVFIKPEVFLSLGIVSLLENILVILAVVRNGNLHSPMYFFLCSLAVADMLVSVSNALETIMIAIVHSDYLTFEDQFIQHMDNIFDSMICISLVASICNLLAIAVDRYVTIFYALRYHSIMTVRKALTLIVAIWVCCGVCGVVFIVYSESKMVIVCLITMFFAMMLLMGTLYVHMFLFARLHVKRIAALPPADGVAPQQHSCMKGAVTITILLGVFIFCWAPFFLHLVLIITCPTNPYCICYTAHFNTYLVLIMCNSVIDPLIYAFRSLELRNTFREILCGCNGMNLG

[8] = target: ACTH (MCR-2) receptor endogenous to murine Y1 adrenocortical cells (murine) (UniProt Q64326); assay: cell-based or functional assay
Chain of ACTH (MCR-2) receptor endogenous to murine Y1 adrenocortical cells (murine) (Q64326 whole entry): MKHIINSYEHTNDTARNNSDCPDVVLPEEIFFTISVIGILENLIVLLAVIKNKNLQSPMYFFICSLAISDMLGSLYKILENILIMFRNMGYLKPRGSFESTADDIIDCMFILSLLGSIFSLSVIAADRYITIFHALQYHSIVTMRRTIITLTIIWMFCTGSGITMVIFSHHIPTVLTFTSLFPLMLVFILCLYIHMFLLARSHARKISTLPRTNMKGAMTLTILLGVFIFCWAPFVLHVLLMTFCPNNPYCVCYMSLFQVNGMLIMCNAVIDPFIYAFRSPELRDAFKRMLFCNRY

Chain of human MCR-4 receptor (human) (P32245 whole entry): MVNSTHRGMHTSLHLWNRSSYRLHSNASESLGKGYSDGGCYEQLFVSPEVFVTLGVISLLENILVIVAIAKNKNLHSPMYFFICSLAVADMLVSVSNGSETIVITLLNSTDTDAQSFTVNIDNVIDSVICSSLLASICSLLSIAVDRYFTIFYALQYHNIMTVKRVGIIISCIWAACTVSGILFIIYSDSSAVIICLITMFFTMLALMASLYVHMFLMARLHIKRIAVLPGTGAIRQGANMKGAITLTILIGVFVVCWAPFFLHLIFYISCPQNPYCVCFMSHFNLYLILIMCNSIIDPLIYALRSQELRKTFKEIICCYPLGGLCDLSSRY

Work on “dynorphin A(1-13)-NH2 (from UniProt P01213 207-219) (peptide)” yielded a Kd [1] of 1000 nM, a Ki [2] of 71 nM and an EC50 of α-MSH in the presence of 30 µM dynorphin A(1-13)-NH2, MCR-4 [3] of 2000 nM. For the same substance, the EC50 of α-MSH in the presence of 30 µM dynorphin A(1-13)-NH2, MCR-1 [4] was 2100 nM, the IC50 nM in Frog Melanophore Assay [5] was 145 nM and the fold shift of the α-MSH EC50 by 30 µM dynorphin A(1-13)-NH2 [6] was 50 fold. It also gave an EC50 of α-MSH in the presence of 30 µM dynorphin A(1-13)-NH2, MCR-3 [7] of 1600 nM.
Substance “dynorphin A(2-13) (from UniProt P01213 176-187) (peptide)” has a Ki [2] of 79 nM, a dose ratio of α-MSH dose-response curves with and without 30 µM dynorphin A(2-13), MCR-4 [3] of 147 and a dose ratio of α-MSH dose-response curves with and without 30 µM dynorphin A(2-13), MCR-1 [4] of 250. It also gave an EC50 of ACTH-(1-24) in the presence of 30 µM dynorphin A(2-13) [8] of 28 nM, a fold shift to the right of the concentration-response curve of ACTH-(1-24) at 30 µM [8] of 15 fold and a dose ratio of α-MSH dose-response curves with and without 30 µM dynorphin A(2-13), MCR-3 [7] of 128.
For “neurotensin(8-13) analog, D-Arg-Arg-Pro-Trp-Ile-Leu (peptide)”, the IC50 in the frog MCR assay [5] was greater than 10000 nM.
For “p-anisoyl-[D-Arg^6,9, D-Lys^11, D-Leu^12] dynorphin A(6-12)-NH2 (peptide)”, the Ki [2] was 12 nM and the pKi [2] was 7.91.
Work on urocortin (peptide) yielded an IC50 in the frog MCR assay [5] greater than 10000 nM.
